Reference: article PMC2726748 (Journal of molecular biology, 2009)

Biological target: the molecule itself
Assay: crystal structure

B1: recombinant mouse apoptosis inducing factor AIFΔ1–101 (domain or fragment, UniProt Q9Z0X1 102-612, looked up)
chain: GLSPEEKQRRAIASATEGGSVPQIRAPSHVPFLLIGGGTAAFAAARSIRARDPGARVLIVSEDPELPYMRPPLSKELWFSDDPNVTKTLQFRQWNGKERSIYFQPPSFYVSAQDLPNIENGGVAVLTGKKVVHLDVRGNMVKLNDGSQITFEKCLIATGGTPRSLSAIDRAGAEVKSRTTLFRKIGDFRALEKISREVKSITVIGGGFLGSELACALGRKSQASGIEVIQLFPEKGNMGKILPQYLSNWTMEKVKREGVKVMPNAIVQSVGVSGGRLLIKLKDGRKVETDHIVTAVGLEPNVELAKTGGLEIDSDFGGFRVNAELQARSNIWVAGDAACFYDIKLGRRRVEHHDHAVVSGRLAGENMTGAAKPYWHQSMFWSDLGPDVGYEAIGLVDSSLPTVGVFAKATAQDNPKSATEQSGTGIRSESETESEASEITIPPSAPAVPQVPVEGEDYGKGVIFYLRDKVVVGIVLWNVFNRMPIARKIIKDGEQHEDLNEVAKLFNIHED
stoichiometry N: 2
